Experimental data taken from patent publication US20150152192A1 (SAMSUNG ELECTRONICS, published 2015).
Numbering of substitutions follows the chain as printed.

T1: Ang2 with N467 mutated with alanine, tagged with FLAG (human, UniProt O15123 19-496, limits assumed)
T1 sequence: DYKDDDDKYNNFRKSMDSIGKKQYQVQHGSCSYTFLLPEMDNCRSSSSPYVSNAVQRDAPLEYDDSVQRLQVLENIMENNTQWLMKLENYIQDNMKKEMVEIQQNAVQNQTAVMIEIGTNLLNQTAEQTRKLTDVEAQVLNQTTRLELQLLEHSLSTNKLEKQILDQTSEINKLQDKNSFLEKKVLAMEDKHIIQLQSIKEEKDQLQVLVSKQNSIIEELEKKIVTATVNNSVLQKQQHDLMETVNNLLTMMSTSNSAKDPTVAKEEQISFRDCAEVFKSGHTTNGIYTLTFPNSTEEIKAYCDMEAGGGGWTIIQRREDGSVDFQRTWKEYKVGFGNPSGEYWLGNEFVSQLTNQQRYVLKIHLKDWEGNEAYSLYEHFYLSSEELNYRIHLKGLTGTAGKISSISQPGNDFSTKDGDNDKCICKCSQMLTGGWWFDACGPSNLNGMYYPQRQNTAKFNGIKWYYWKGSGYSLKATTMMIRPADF

T2: Ang2 with I434 mutated with alanine, tagged with FLAG (human, UniProt O15123 19-496, limits assumed)
T2 sequence: T1 sequence with I424A, A457N

B1: SAIT-ANG-2-AB-2-E6 (scFv form) (scFv, V domains shown)
VH: EVQLLESGGGLVQTGGSLRLSCAASGFTFSDYAMSWVRQAPGKGLEWVSAIYPDSGNKYYADSVKGRFTISRDNSKNTLYLQMNSLRAEDTAVYYCARHSSDPKVKSGYYDDGMDVWGQGTLVAVSS
VL: QSVLTQPPSASGTPGQRVTISCSGSSSNIGNNAVNWYQQLPGTAPKLLIYADSNRPSGVPDRFSGSKSGTSASLAISGLRSEDEADYYCGSWDYSLSGYVFGGGTKLTVLG
notes: scFv from a phage display library, partly purified from E. coli periplasm on Ni-NTA and detected with anti-HA
B2: SAIT-ANG-2-AB-4-F11 (scFv form) (scFv, V domains shown)
VH: EVQLLESGGGLVQTGGSLRLSCAASGFTFSDYAMSWVRQAPGKGLEWVSSIYPDDGNTYYADSVKGRFTISRDNSKNTLYLQMNSLRAEDTAVYYCAKHPVRLNLHPMYYYYGMDVWGQGTLVTVSS
VL: B1 VL with S23T, N35S, A51S, N54Q, G90A, S91T, G98A
notes: scFv from a phage display library
B3: SAIT-ANG-2-AB-3-D3 (scFv form) (scFv, V domains shown)
VH: EVQLLESGGGLVQPGGSLRLSCAASGFTFSDYDMSWVRQAPGKGLEWVSGISSDDGNTYYADSVKGRFTISRDNSKNTLYLQMNSLRAEDTAVYYCARPTIDKYTLRGYYSYGMDVWGQGTLVTVSS
VL: B1 VL with S23T, N31S, A33Y, N35S, A51S, S53N, N54K, S91T, Y94D, S97N
notes: as for B2
B4: SAIT-ANG-2-AB-4-C11 (scFv form) (scFv, V domains shown)
VH: EVQLLESGGGLVQPGGSLRLSCAASGFTFSDYAMSWVRQAPGKGLEWVSSIYPDDGNTYYADSVKGRFTISRDNSKNTLYLQMNSLRAEDTAVYYCARHTSHHTSIDGYYYYGMDGWGQGTLVTVSS
VL: B1 VL with S23T, A33D, N35S, A51S, N54K
notes: as for B2
B5: SAIT-ANG-2-AB-8-A5 (scFv form) (scFv, V domains shown)
VH: EVQLLESGGGLVQPGGSLRLSCAASGFTFSDYYMSWVRQAPGKGLEWVSGIYPSGGSTYYADSVKGRFTISRDNSKNTLYLQMNSLRAEDTAVYYCARDPSTLTYAGFDYWGQGTLVTVSS
VL: B1 VL with A33Y, N35T, N54H, G90A, S91T
notes: as for B2
B6: SAIT-ANG-2-AB-4-F5 (scFv form) (scFv, V domains shown)
VH: EVQLLESGGGLVQPGGSLRLSCAASGFTFSDYDMSWVRQAPGKGLEWVSSISHGDSNKYYADSVKGRFTISRDNSKNTLYLQMNSLRAEDTAVYYCAKSSGIQESPPTYYYYGMDVWGQGTLVTVSS
VL: B1 VL with N31S
notes: as for B2
B7: SAIT-ANG-2-AB-7-C9 (scFv form) (scFv, V domains shown)
VH: EVQLLESGGGLVQPGGSLRLSCAASGFTFSNYAMSWVRQAPGKGLEWVSAISSGGGNIYYADSVKGRFTISRDNSKNTLYLQMNSLRAEDTAVYYCAKSGIQPSPPSMSSAYAMDVWGQGTLVTVSS
VL: B1 VL with A33D, N35Y, D52N, N54H, S91T
notes: as for B2

What follows are binders tested against T1, Ang2 with N467 mutated with alanine, … (assay: ELISA, scFv coated, 250 ng FLAG-tagged Ang2 mutant, anti-FLAG-HRP).
Experimental: (§1) A 96-well MaxiSorp™ flat-bottom plate (Nunc) was coated with 50 μl of the anti-Ang2 scFv selected above. After that, the plate was washed five times with 0.05% (v/v) Tween-20-containing PBS and then blocked with 1% (v/v) BSA-containing PBS at a room temperature for 2 hours. […] Thereafter, the plate was washed five times with 0.05% Tween-20-containing PBS and then, an HRP-conjugated anti-FLAG antibody (SIGMA) diluted in 1% (v/v) BSA-containing PBS at 1:5,000 ratio (v/v) was added in the amount of 50 μl to each well to react at a room temperature for 1 hour, followed by washing five times with 0.1% (v/v) Tween-20-containing PBS.
(§2) Finally, 100 μl of TMB substrate (cell signal) was added to each well of the plate to induce color development and then, the reaction was ceased by the addition of 50 μl of 5N H₂SO₄ solution and OD450 values were measured on a plate reader (Molecular Devices).

| Binder | Relative binding (%) with Mutant Ang2 compared to the binding with native Ang2 [%] |
| --- | --- |
| B1 | 72.1 |
| B2 | 92 |
| B3 | 90.9 |
| B4 | 81.7 |
| B5 | 90.7 |
| B6 | 11.3 |
| B7 | 86.6 |

What follows are binders tested against T2, Ang2 with I434 mutated with alanine, … in the same assay as above.
Experimental: as §1, §2

| Binder | Relative binding (%) with Mutant Ang2 compared to the binding with native Ang2 [%] |
| --- | --- |
| B1 | 5.3 |
| B2 | 69 |
| B3 | 93.4 |
| B4 | 7.2 |
| B5 | 4 |
| B6 | 68.6 |
| B7 | 8.7 |
